Experimental data published in US20250019412A1 (ALPINE IMMUNE SCIENCES, published 2025).
Substitutions are numbered along the chain they refer to. Names and notes keep the numbering of the source. Where two headings read alike, the source gives them in different places.

Legend:
Assay in all cases: cell-based or functional assay
[1] = target: T1, recombinant human APRIL (human, UniProt O75888 105-250, limits assumed)
T1 sequence (looked up): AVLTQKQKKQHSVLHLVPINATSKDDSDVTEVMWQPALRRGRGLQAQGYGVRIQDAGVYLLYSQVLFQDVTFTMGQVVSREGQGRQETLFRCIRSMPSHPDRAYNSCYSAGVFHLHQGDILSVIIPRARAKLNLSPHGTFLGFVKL

[2] = target: T2, recombinant human BAFF (human, UniProt Q9Y275 134-285)
[3] = target: T1, recombinant human APRIL; remark: listed apart in the source
[4] = target: T2, recombinant human BAFF; remark: listed apart in the source
[5] = target: T1, recombinant human APRIL; remark: listed apart in the source
[6] = target: T2, recombinant human BAFF; remark: listed apart in the source
[7] = target: T1, recombinant human APRIL; remark: listed apart in the source
[8] = target: T2, recombinant human BAFF; remark: listed apart in the source
[9] = target: T1, recombinant human APRIL; remark: listed apart in the source
[10] = target: T2, recombinant human BAFF; remark: listed apart in the source
[11] = target: T3, recombinant mouse APRIL (mouse, UniProt Q9D777 96-241, limits assumed)
T3 sequence (looked up): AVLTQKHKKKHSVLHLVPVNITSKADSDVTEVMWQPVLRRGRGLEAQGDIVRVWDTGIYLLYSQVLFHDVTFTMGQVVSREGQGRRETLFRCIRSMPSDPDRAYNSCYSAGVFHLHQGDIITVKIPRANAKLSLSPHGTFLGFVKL

[12] = target: recombinant mouse BAFF (mouse, UniProt Q9WU72 127-309)
Sequence of recombinant mouse BAFF (Q9WU72 127-309 limits assumed): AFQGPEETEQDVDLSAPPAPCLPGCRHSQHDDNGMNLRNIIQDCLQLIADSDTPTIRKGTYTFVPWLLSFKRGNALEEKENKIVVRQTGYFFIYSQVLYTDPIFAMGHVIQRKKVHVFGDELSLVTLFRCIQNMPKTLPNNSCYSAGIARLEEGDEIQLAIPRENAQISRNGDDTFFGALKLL

B1: TACI 13-118, with K77E/F78Y/Y102D, Fc fusion (Fc fusion)
chain: SRVDQEERFPQGLWTGVAMRSCPEEQYWDPLLGTCMSCKTICNHQSQRTCAAFCRSLSCRKEQGEYYDHLLRDCISCASICGQHPKQCADFCENKLRSPVNLPPELEPKSSDKTHTCPPCPAPEAEGAPSVFLFPPKPKDTLMISRTPEVTCVVVDVSHEDPEVKFNWYVDGVEVHNAKTKPREEQYNSTYRVVSVLTVLHQDWLNGKEYKCKVSNKALPAPIEKTISKAKGQPREPQVYTLPPSRDELTKNQVSLTCLVKGFYPSDIAVEWESNGQPENNYKTTPPVLDSDGSFFLYSKLTVDKSRWQQGNVFSCSVMHEALHNHYTQKSLSLSPG
- APRIL IC50 (pM) [1]: 13200 pM
- APRIL IC50 (ΔWT) [1]: 1.07 fold of WT TACI (68-110)-Fc
- BAFF IC50 (pM) [2]: 1990 pM
- BAFF IC50 (ΔWT) [2]: 1.07 fold of WT TACI (68-110)-Fc
- IC50 (nM) APRIL [3]: 848 nM
- IC50 APRIL (Δ TACI 30-110) [3]: 0.2 fold of TACI 30-110
- IC50 (nM) BAFF [4]: 2050 nM
- IC50 BAFF (Δ TACI 30-110) [4]: 0.46 fold of TACI 30-110

B2: 7 TACI CRD1/CRD2-Fc (Fc fusion)
variant TACI domain - linker - Fc fusion chain: VAMRSCPEEQYWDPLLGTCMSCKTICNHQSQRTCAAFCRSLSCRKEQGKFYDHLLRDCISCASICGQHPKQCDYFCENKLRSGSGGGGSEPKSSDKTHTCPPCPAPEAEGAPSVFLFPPKPKDTLMISRTPEVTCVVVDVSHEDPEVKFNWYVDGVEVHNAKTKPREEQYNSTYRVVSVLTVLHQDWLNGKEYKCKVSNKALPAPIEKTISKAKGQPREPQVYTLPPSRDELTKNQVSLTCLVKGFYPSDIAVEWESNGQPENNYKTTPPVLDSDGSFFLYSKLTVDKSRWQQGNVFSCSVMHEALHNHYTQKSLSLSPG
- IC50 (read off the curve): blockade of human APRIL signalling via TACI (NF-κB luciferase reporter, Jurkat/NF-κB/TACI cells) [5]: ~3 nM
- IC50 (read off the curve): blockade of human BAFF signalling via TACI (NF-κB luciferase reporter, Jurkat/NF-κB/TACI cells) [6]: ~2 nM

B3: 26 TACI CRD2-Fc (Fc fusion)
chain: SLSCRKEQGEYYDHLLRDCISCASICGQHPKQCADFCENKLRSGSGGGGSEPKSSDKTHTCPPCPAPEAEGAPSVFLFPPKPKDTLMISRTPEVTCVVVDVSHEDPEVKFNWYVDGVEVHNAKTKPREEQYNSTYRVVSVLTVLHQDWLNGKEYKCKVSNKALPAPIEKTISKAKGQPREPQVYTLPPSRDELTKNQVSLTCLVKGFYPSDIAVEWESNGQPENNYKTTPPVLDSDGSFFLYSKLTVDKSRWQQGNVFSCSVMHEALHNHYTQKSLSLSPG
- IC50 (read off the curve): blockade of human APRIL signalling via TACI (NF-κB luciferase reporter, Jurkat/NF-κB/TACI cells) [7]: ~0.6 nM
- IC50 (read off the curve): blockade of human BAFF signalling via TACI (NF-κB luciferase reporter, Jurkat/NF-κB/TACI cells) [8]: ~2 nM
- APRIL IC50 (pM) [1]: 9210 pM
- APRIL IC50 (ΔWT) [1]: 0.75 fold of WT TACI (68-110)-Fc
- BAFF IC50 (pM) [2]: 1550 pM
- BAFF IC50 (ΔWT) [2]: 0.84 fold of WT TACI (68-110)-Fc
- IC50 (nM) APRIL [9]: 179 nM
- IC50 APRIL (Δ TACI 30-110-Fc) [9]: 0.05 fold of TACI 30-110-Fc
- IC50 (nM) BAFF [10]: 1220 nM
- IC50 BAFF (Δ TACI 30-110-Fc) [10]: 0.21 fold of TACI 30-110-Fc
- IC50 (read off the curve): blockade of human BAFF signalling via TACI (NF-κB luciferase reporter, Jurkat/NF-κB/TACI cells) [6]: ~0.6 nM
- IC50 (nM) APRIL [3]: 214 nM
- IC50 APRIL (Δ TACI 30-110) [3]: 0.05 fold of TACI 30-110
- IC50 (nM) BAFF [4]: 1270 nM
- IC50 BAFF (Δ TACI 30-110) [4]: 0.28 fold of TACI 30-110

B4: 13 TACI CRD2-Fc (Fc fusion)
chain: B3 chain with E10K, Y11F, D35Y
- IC50 (read off the curve): blockade of human BAFF signalling via TACI (NF-κB luciferase reporter, Jurkat/NF-κB/TACI cells) [8]: ~3 nM
- IC50 (read off the curve): blockade of mouse APRIL signalling via TACI (NF-κB luciferase reporter, Jurkat/NF-κB/TACI cells) [11]: ~0.7 nM
- IC50 (read off the curve): blockade of mouse BAFF signalling via TACI (NF-κB luciferase reporter, Jurkat/NF-κB/TACI cells) [12]: ~5 nM
- APRIL IC50 (pM) [1]: 12300 pM
- APRIL IC50 (ΔWT) [1]: 1 fold of WT TACI (68-110)-Fc
- BAFF IC50 (pM) [2]: 1850 pM
- BAFF IC50 (ΔWT) [2]: 1 fold of WT TACI (68-110)-Fc
- IC50 (nM) APRIL [9]: 369 nM
- IC50 APRIL (Δ TACI 30-110-Fc) [9]: 0.1 fold of TACI 30-110-Fc
- IC50 (nM) BAFF [10]: 1330 nM
- IC50 BAFF (Δ TACI 30-110-Fc) [10]: 0.23 fold of TACI 30-110-Fc
- IC50 (read off the curve): blockade of human APRIL signalling via TACI (NF-κB luciferase reporter, Jurkat/NF-κB/TACI cells) [5]: ~5 nM
- IC50 (read off the curve): blockade of human BAFF signalling via TACI (NF-κB luciferase reporter, Jurkat/NF-κB/TACI cells) [6]: ~2 nM
